Reference: patent US20230357367A1

Tests used:
Experiment in all cases: DELFIA, IgG titrated on captured biotin-peptide
Set-up in all cases: unit not given beside the values
[1] = molecular target: SARS-CoV-2 spike S2 peptide 1141-1155, biotinylated (SARS-CoV-2)
[2] = molecular target: SARS-CoV-2 spike S2 peptide 1149-1167 (C-terminal end of the stem helix), biotinylated (SARS-CoV-2)
[3] = molecular target: SARS-CoV-2 spike S2 peptide 1157-1171, biotinylated (SARS-CoV-2)
[4] = molecular target: SARS-CoV-2 spike S2 peptide 1143-1162 (stem helix region), biotinylated (SARS-CoV-2)
[5] = molecular target: SARS-CoV-2 spike S2 peptide 1149-1163, biotinylated (SARS-CoV-2)
[6] = molecular target: SARS-CoV-2 spike S2 peptide 1137-1151, biotinylated (SARS-CoV-2)
[7] = molecular target: SARS-CoV-2 spike S2 peptide 1153-1167, biotinylated (SARS-CoV-2)
[8] = molecular target: SARS-CoV-2 spike S2 peptide 1133-1147, biotinylated (SARS-CoV-2)
[9] = molecular target: SARS-CoV-2 spike S2 peptide 1145-1159, biotinylated (SARS-CoV-2)

B1: AB-1 (antibody, V domains shown)
VH: EVQLVESGAEVKKPGESLKISCKGSGYTFTRYWIGWVRQMPGKGLEWMGIIYPGDSDVRYSPSFQGHVTISADKSISTAYLQWNSLKASDTAMYYCARLPQYCSKGVCYRWFDPWGQGTLVTVSS
VL: EIVLTQSPSSVSASVGDRVTITCRASQGISSWLAWYQQKPGKAPKLLIYAASSLQSGVPSRFSGSGSGTDFTLTISSLQPEDFATYYCQQGHSFPYTFGQGTNLEIK
With B1 the AUC [1] was 18000, the AUC [2] was 3.27e+06 and the AUC [3] was 30000. For the same binder, the AUC [4] was 3.52e+06, the AUC [5] was 3.52e+06 and the AUC [6] was 21500. It also gave an AUC [7] of 3.32e+06, an AUC [8] of 27100 and an AUC [9] of 1.7e+06.
